Assay results from patent US20070111265A1, “Ligands for mineralocorticoid receptor (MR) and methods for screening for or designing MR ligands” (Van Andel Research Institute, priority 2005, published 2007).
Substitutions are numbered along the chain they refer to. Numbers in names are those of the source.

T1: VP16-MR LBD (Homo sapiens, UniProt P08235)
T1 construct: expressed in transfected cells; host or cells: Cos-7
T1 sequence (P08235 727-984): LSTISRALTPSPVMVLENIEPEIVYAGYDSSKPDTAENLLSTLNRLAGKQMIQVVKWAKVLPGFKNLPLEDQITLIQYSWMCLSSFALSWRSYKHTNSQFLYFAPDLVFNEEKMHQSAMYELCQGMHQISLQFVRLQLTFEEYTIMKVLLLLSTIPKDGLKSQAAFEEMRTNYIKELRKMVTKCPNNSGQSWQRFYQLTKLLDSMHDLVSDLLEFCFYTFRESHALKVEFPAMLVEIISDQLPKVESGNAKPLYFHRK

T2: purified MR/corticosterone complex (MR LBD C808S) (Homo sapiens, UniProt P08235, C808S)
T2 construct: made in house; host or cells: E. coli BL21DE3 (pET24a)
T2 sequence (P08235 727-984 C808S): T1 sequence (P08235 727-984) with C82S

B1: SRC1-4M: GAL4-DBD SRC1-4 with LXXAA mutation of the SRC1-4 motif (protein)
chain: QGEANFAPSLSPGSSMVPMPIPPPQSSLLQQTPPASGYQSPDMKAWQQGAIGNNNVFSQAVQNQPTPAQPGVYNNMSITVSMAGGNTNVQNMNPMMAQMQMSSLQMPGMNTVCPEQINDPALRHTGLYCNQLSSTDLLKTEADGTQQVQQVQVFADVQCTVNLVGGDPYLNQPGPLGTQKPTSGPQTPQAQQKSLLQQAATE
modifications: left off: large carriers; small tags and cut ends
notes: GAL4-DBD SRC1-4 with LXXAA mutation of the SRC1-4 motif
B2: SRC1-4 E1441K: GAL4-DBD SRC1-4 with E+7K mutation of the SRC1-4 motif (protein)
chain: B1 chain with A199L, A200L, E202K
modifications: left off: large carriers; small tags and cut ends
notes: GAL4-DBD SRC1-4 with E+7K mutation of the SRC1-4 motif
B3: SRC2-(M2+3): SRC2 fragment in which the 2nd LXXLL motif was mutated to LXXAA (protein)
chain: QNSPVNMNPPPLSKMGSLDSKDCFGLYGEPSEGTTGQAESSCHPGEQKETNDPNLPPAVSSERADGQSRLHDSKGQTKLLQLLTTKSDQMEPSPLASSLSDTNKDSTGSLPGSGSTHGTSLKEKHKILHRAAQDSSSPVDLAKLTAEATGKDLSQESSSTAPGSEVTIKQEPVSPKKKENALLRYLLDKDDTKDIGLPEIT
modifications: left off: small tags and cut ends; a dimerising Fc or GST
notes: SRC2 fragment in which the 2nd LXXLL motif was mutated to LXXAA
B4: PGC1α-(1+2): purified human PGC1α fragment (residues 1-220) containing both LXXLL motifs (protein)
chain: MAWDMCNQDSESVWSDIECAALVGEDQPLCPDLPELDLSELDVNDLDTDSFLGGLKWCSDQSEIISNQYNNEPSNIFEKIDEENEANLLAVLTETLDSLPVDEDGLPSFDALTDGDVTTDNEASPSSMPDGTPPPQEAEEPSLLKKLLLAPANTQLSYNECSGLSTQNHANHNHRIRTNPAIVKTENSWSNKAKSICQQQKPQRRPCSELLKYLTTNDDP
modifications: left off: small tags and cut ends; a dimerising Fc or GST
notes: purified human PGC1α fragment (residues 1-220) containing both LXXLL motifs

How the values were obtained:
[1] = target: T1, VP16-MR LBD; test: Mammalian two hybrid assay, pG5Luc reporter; format: cell-based; conditions: 10 nM corticosterone
Experimental: (C) Mammalian two-hybrid interaction of SRC1 with MR. GAL4-DBD were fused with the SRC1-4 motif (SRC1-4, residues 1240-1441) and two mutated forms of SRC1-4 [SRC1-4(E1441K), corresponding to E+7K mutation of the SRC1-4 motif, and SRC1-M4 (L1438A/L1439A), corresponding to the LXXAA mutation of the SRC1-4 motif], respectively. VP16 were fused with MR LBD and MR LBD (K782E). The cells were cotransfected with GAL4 and VP16 fusion constructs and pG5Luc reporter. The cells were treated with 10 nM corticosterone.
Cos-7 cells were maintained in DMEM containing 10% fetal bovine serum (FBS) and were transiently transfected using Lipofectamine 2000 (Invitrogen). 24-Well plates were plated 24 hr prior to transfection (5×10^4 cells per well). Cells were transfected in Opti-MEM with 400 ng of MMTV-Luc reporter plasmid and 400 ng of receptor expression vector (pRS vector) encoding full-length GR and MR respectively (ATCC). […] For cotransfection of MR and SRC1, 50 ng Gal4-MR LBD was transfected with 200 ng pG5Luc and various amounts of PCR3.1-SRC1 as indicated in the figure legend. 18 hours after transfection, steroids were added in DMEM supplemented with 5% Charcoal/Dextran treated FBS (Hyclone). Cells were harvested 24 hours later for luciferase assays. Luciferase data were normalized to Renilla activity as an internal control. […]

[2] = target: T2, purified MR/corticosterone complex (MR LBD C808S); test: AlphaScreen peptide competition (IC50) of coactivator LXXLL motifs; format: binding
Source text: (D) Binding affinity of various coactivator LXXLL motifs to the purified MR/corticosterone complex as determined by IC50 values from peptide competition experiments using AlphaScreen assays. The numbering scheme of the LXXLL motifs is shown on the top of the sequences.
SRC2-(2+3) and […] SRC2 protein fragments containing 2nd and 3rd LXXLL motifs. The 2nd LXXLL motif of SRC2 was mutated to LXXAA in SRC2-(M2+3).
(G) Binding affinity of PGC1α-(1+2), PGC1α-1 and PGC1α-2 to the purified MR/corticosterone complex as determined by IC50 values from peptide competition experiments.
The fusion protein contains a His6-TAG ([…]) at the N terminus and a thrombin protease site between GST and the MR LBD. BL21DE3 cells transformed with this expression plasmid were grown in LB broth at 16° C. to an OD600 of ˜1 and induced with 0.1 mM IPTG and 50 μM corticosterone. Cells were harvested, resuspended in 400 ml extract buffer (50 mM Tris[pH8.0], 150 mM NaCl, 2 M Urea, 10% glycerol) per 24 liters of cells, and passed three times through a French Press with pressure set at […]. […] Both human PGC1α (1+2) (residues 1-220) and SRC2-(2+3) (residues 563-763) were expressed as a 6×His-GST fusion protein from the expression vector pET24a (Novagen). […]
The binding of various peptide motifs to MR was determined by AlphaScreen assays using a hexahistidine detection kit from Perkin-Elmer. […]

Row | Molecule | interaction with MR LBD [1] | other results
1 | B1 | abolished the interaction | 
2 | B2 | failed to interact | 
3 | B3 |  | decrease of binding affinity versus SRC2-(2+3) ([2]; second LXXLL motif mutated): more than 10 fold
4 | B4 |  | binding affinity to MR ([2]; compared with single motifs, FIG. 3G): much higher affinity than either motif alone
